Measured values taken from publication PMC6555819, “Comprehensive study of nuclear receptor DNA binding provides a revised framework for understanding receptor specificity”.

B1: NRC3_random_hg19_418_o1 (dsDNA)
DNA 1: GCTGTGAGCATCACTTCTTGTTGGTCAGAGTAAGAGGCGATTGACAGCGTAGAATGAAGG
DNA 2: CCTTCATTCTACGCTGTCAATCGCCTCTTACTCTGACCAACAAGAAGTGATGCTCACAGC
B2: NRC3_random_hg19_309_o1 (dsDNA)
DNA 1: GCCTTAGCTGGGATCTTATCTGTACAGTATCTGGGAGCGATTGACAGCGTAGAATGAAGG
DNA 2: CCTTCATTCTACGCTGTCAATCGCTCCCAGATACTGTACAGATAAGATCCCAGCTAAGGC
B3: NRC3_wobSeed89_DR3_A15G_o1 (dsDNA)
DNA 1: GCCTATGTAGGTTAGGGGGGTCATTCAGTTTGAAAGGCGATTGACAGCGTAGAATGAAGG
DNA 2: CCTTCATTCTACGCTGTCAATCGCCTTTCAAACTGAATGACCCCCCTAACCTACATAGGC
B4: NRC3_wobSeed89_DR3_A9G_o1 (dsDNA)
DNA 1: GCCTATGTGGGTTAAGGGGGTCATTCAGTTTGAAAGGCGATTGACAGCGTAGAATGAAGG
DNA 2: CCTTCATTCTACGCTGTCAATCGCCTTTCAAACTGAATGACCCCCTTAACCCACATAGGC
B5: NRC3_wobSeed89_DR3_A15C_o1 (dsDNA)
DNA 1: GCCTATGTAGGTTACGGGGGTCATTCAGTTTGAAAGGCGATTGACAGCGTAGAATGAAGG
DNA 2: CCTTCATTCTACGCTGTCAATCGCCTTTCAAACTGAATGACCCCCGTAACCTACATAGGC
B6: NRC3_wobSeed50_DR2_T20C_o1 (dsDNA)
DNA 1: GCCCTAGTTGGTCAGGAGGCCACACACCGGATATGAGCGATTGACAGCGTAGAATGAAGG
DNA 2: CCTTCATTCTACGCTGTCAATCGCTCATATCCGGTGTGTGGCCTCCTGACCAACTAGGGC
B7: NRC3_wobSeed124_DR5_o1 (dsDNA)
DNA 1: GCCCTACTGGGCCATTCAGAGGTCATTGATCATATGGCGATTGACAGCGTAGAATGAAGG
DNA 2: CCTTCATTCTACGCTGTCAATCGCCATATGATCAATGACCTCTGAATGGCCCAGTAGGGC
B8: NRC3_random_hg19_55_o1 (dsDNA)
DNA 1: GCTTGAACGCCTGCTTTGTGCTGATGCAGATCCAGAGCGATTGACAGCGTAGAATGAAGG
DNA 2: CCTTCATTCTACGCTGTCAATCGCTCTGGATCTGCATCAGCACAAAGCAGGCGTTCAAGC
B9: NRC3_random_hg19_171_o1 (dsDNA)
DNA 1: GCGGGCTACTGCCTAGGGTGCCTTGGCACAGCCAGCGCGATTGACAGCGTAGAATGAAGG
DNA 2: CCTTCATTCTACGCTGTCAATCGCGCTGGCTGTGCCAAGGCACCCTAGGCAGTAGCCCGC
B10: NRC3_wobSeed120_DR4_G7A_o1 (dsDNA)
DNA 1: GCCCGAATAGGTTACGAGGGGGCATTCAGTGCGAATGCGATTGACAGCGTAGAATGAAGG
DNA 2: CCTTCATTCTACGCTGTCAATCGCATTCGCACTGAATGCCCCCTCGTAACCTATTCGGGC
B11: NRC3_wobSeed72_DR2_T13C_o1 (dsDNA)
DNA 1: GCTCGAGTAGGTCACGGGGGCATTCAGGGATGAAGAGCGATTGACAGCGTAGAATGAAGG
DNA 2: CCTTCATTCTACGCTGTCAATCGCTCTTCATCCCTGAATGCCCCCGTGACCTACTCGAGC
B12: NRC3_wobSeed25_DR1_A5C_o1 (dsDNA)
DNA 1: GCCACACTAGGTCAAAGGTCAAAGTCGAGCCAACCAGCGATTGACAGCGTAGAATGAAGG
DNA 2: CCTTCATTCTACGCTGTCAATCGCTGGTTGGCTCGACTTTGACCTTTGACCTAGTGTGGC
B13: NRC3_random_hg19_190_o1 (dsDNA)
DNA 1: GCGCCTCAATTCTAACTTGATTGCTTCCCTAGAGGCGCGATTGACAGCGTAGAATGAAGG
DNA 2: CCTTCATTCTACGCTGTCAATCGCGCCTCTAGGGAAGCAATCAAGTTAGAATTGAGGCGC
B14: NRC3_random_hg19_358_o1 (dsDNA)
DNA 1: GCCTAGCAGCAACCAACCACAATGGCAAGGATGTAGGCGATTGACAGCGTAGAATGAAGG
DNA 2: CCTTCATTCTACGCTGTCAATCGCCTACATCCTTGCCATTGTGGTTGGTTGCTGCTAGGC
B15: NRC3_random_hg19_209_o1 (dsDNA)
DNA 1: GCGAGTTTCCAGCAGATGGCCATCACAACAATACTGGCGATTGACAGCGTAGAATGAAGG
DNA 2: CCTTCATTCTACGCTGTCAATCGCCAGTATTGTTGTGATGGCCATCTGCTGGAAACTCGC
B16: NRC3_random_hg19_130_o1 (dsDNA)
DNA 1: GCGAGATCAAGACCATCCTGGCTAACATGGTGAAACGCGATTGACAGCGTAGAATGAAGG
DNA 2: CCTTCATTCTACGCTGTCAATCGCGTTTCACCATGTTAGCCAGGATGGTCTTGATCTCGC
B17: NRC3_random_hg19_27_o1 (dsDNA)
DNA 1: GCTCCCTGCCCAGTTCTGTGCAGGGTGTGCGTGTCTGCGATTGACAGCGTAGAATGAAGG
DNA 2: CCTTCATTCTACGCTGTCAATCGCAGACACGCACACCCTGCACAGAACTGGGCAGGGAGC
B18: NRC3_wobSeed17_DR0_A14G_o1 (dsDNA)
DNA 1: GCATATGTAGGTTGGGGTCATTCAGAAAGTAGGGAAGCGATTGACAGCGTAGAATGAAGG
DNA 2: CCTTCATTCTACGCTGTCAATCGCTTCCCTACTTTCTGAATGACCCCAACCTACATATGC
B19: NRC3_wobSeed77_DR3_C8A_o1 (dsDNA)
DNA 1: GCACTTAAGGGTCAACGAGGTTATAGCACGCGTATAGCGATTGACAGCGTAGAATGAAGG
DNA 2: CCTTCATTCTACGCTGTCAATCGCTATACGCGTGCTATAACCTCGTTGACCCTTAAGTGC
B20: NRC3_random_hg19_381_o1 (dsDNA)
DNA 1: GCCATGAGCGTGGAATGTTCTTCCATTTGTTCATATGCGATTGACAGCGTAGAATGAAGG
DNA 2: CCTTCATTCTACGCTGTCAATCGCATATGAACAAATGGAAGAACATTCCACGCTCATGGC
B21: NRC3_random_hg19_54_o1 (dsDNA)
DNA 1: GCAGGTAATGTATTCACAGGTTCTGGGACGTCATTGGCGATTGACAGCGTAGAATGAAGG
DNA 2: CCTTCATTCTACGCTGTCAATCGCCAATGACGTCCCAGAACCTGTGAATACATTACCTGC
B22: NRC3_wobSeed74_DR3_A18G_o1 (dsDNA)
DNA 1: GCTCTAGTTGGTCACGGGGGTCACACACGACGGGTAGCGATTGACAGCGTAGAATGAAGG
DNA 2: CCTTCATTCTACGCTGTCAATCGCTACCCGTCGTGTGTGACCCCCGTGACCAACTAGAGC

Tests used:
RARb:RXRa = RARb:RXRa (Homo sapiens, UniProt P10826;P19793 full;full); experiment: no ligand; PBM; 270 nM : 90 nM RXRa; PBS pH 7.4, 2% milk, 0.02% Triton X-100, 1 mM DTT, BSA, 0.4 mg/ml salmon testes DNA; conditions: tags: His kept;His cleaved; copies: 1;1; label: surface-attached array probe
Chain of RARb:RXRa (P10826 whole entry, chain 1 of 2): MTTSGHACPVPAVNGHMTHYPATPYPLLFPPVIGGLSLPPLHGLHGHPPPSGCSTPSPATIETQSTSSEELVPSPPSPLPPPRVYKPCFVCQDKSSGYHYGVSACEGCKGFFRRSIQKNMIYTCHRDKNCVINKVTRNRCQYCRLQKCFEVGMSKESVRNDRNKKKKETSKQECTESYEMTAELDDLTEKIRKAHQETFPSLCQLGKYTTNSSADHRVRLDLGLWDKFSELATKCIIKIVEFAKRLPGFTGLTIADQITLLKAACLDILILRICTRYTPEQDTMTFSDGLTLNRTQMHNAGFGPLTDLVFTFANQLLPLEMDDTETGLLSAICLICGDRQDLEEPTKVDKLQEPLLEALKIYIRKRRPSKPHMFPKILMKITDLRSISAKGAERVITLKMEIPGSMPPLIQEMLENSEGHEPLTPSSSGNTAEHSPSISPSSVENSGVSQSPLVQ
Chain of RARb:RXRa (P19793 whole entry, chain 2 of 2): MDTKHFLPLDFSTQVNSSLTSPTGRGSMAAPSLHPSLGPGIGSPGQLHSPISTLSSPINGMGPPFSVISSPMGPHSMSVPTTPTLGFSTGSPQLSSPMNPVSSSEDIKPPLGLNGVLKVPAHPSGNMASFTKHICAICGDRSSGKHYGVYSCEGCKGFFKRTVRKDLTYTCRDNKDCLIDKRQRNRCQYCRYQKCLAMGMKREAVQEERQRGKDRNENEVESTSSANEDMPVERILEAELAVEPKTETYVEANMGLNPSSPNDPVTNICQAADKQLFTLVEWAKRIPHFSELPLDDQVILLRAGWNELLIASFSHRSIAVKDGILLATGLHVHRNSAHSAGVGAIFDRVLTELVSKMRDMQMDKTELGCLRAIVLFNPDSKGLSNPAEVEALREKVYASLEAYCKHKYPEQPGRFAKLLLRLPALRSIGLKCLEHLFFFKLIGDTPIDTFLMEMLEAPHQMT
Method in brief: (§1)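 Probes were double-stranded and carried 34-nt variable regions with direct-repeat seeds, single-nucleotide variants, half-site ablations and random human genomic background sequences, printed on custom Agilent 4×180K protein-binding microarrays. Arrays were incubated 1 h with ligand-free nuclear receptor dimers in PBS pH 7.4, 2% milk, 0.02% Triton X-100, 1 mM DTT, 0.2 mg/mL BSA and 0.4 mg/ml salmon testes DNA. Antibodies against each partner (one per run) detected binding, and scanned fluorescence was regression-normalized. Binding z-scores use the random background probes as reference.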

VDR:RXRa = VDR:RXRa (Homo sapiens, UniProt P11473;P19793 full;full); experiment: as above; conditions: tags: His kept;His cleaved; copies: 1;1; label: surface-attached array probe
Chain of VDR:RXRa (P11473 whole entry, chain 1 of 2): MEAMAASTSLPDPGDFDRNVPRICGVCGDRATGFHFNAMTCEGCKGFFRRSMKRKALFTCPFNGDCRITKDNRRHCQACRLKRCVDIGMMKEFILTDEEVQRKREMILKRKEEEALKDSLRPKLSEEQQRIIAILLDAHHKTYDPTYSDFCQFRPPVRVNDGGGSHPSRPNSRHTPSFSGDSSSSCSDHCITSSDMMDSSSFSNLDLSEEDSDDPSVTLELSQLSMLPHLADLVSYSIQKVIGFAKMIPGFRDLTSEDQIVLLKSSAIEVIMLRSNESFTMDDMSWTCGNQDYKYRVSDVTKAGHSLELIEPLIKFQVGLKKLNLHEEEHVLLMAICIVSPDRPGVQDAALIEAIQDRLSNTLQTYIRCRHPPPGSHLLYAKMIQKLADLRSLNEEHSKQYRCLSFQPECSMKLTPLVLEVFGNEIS
Chain of VDR:RXRa (P19793 whole entry, chain 2 of 2): as the sequence (P19793 whole entry, chain 2 of 2) above
Method in brief: as §1

RXRa = RXRa (Homo sapiens, UniProt P19793); experiment: no ligand; PBM; 180 nM; PBS pH 7.4, 2% milk, 0.02% Triton X-100, 1 mM DTT, BSA, 0.4 mg/ml salmon testes DNA; conditions: tags: His cleaved; chain copies: 2; label: surface-attached array probe
Chain of RXRa (P19793 whole entry): as the sequence (P19793 whole entry, chain 2 of 2) above
RARg:RXRa = RARg:RXRa (Homo sapiens, UniProt P13631;P19793 full;full); experiment: no ligand; PBM; 270 nM : 90 nM RXRa; PBS pH 7.4, 2% milk, 0.02% Triton X-100, 1 mM DTT, BSA, 0.4 mg/ml salmon testes DNA; conditions: tags: His kept;His cleaved; copies: 1;1; label: surface-attached array probe
Chain of RARg:RXRa (P13631 whole entry, chain 1 of 2): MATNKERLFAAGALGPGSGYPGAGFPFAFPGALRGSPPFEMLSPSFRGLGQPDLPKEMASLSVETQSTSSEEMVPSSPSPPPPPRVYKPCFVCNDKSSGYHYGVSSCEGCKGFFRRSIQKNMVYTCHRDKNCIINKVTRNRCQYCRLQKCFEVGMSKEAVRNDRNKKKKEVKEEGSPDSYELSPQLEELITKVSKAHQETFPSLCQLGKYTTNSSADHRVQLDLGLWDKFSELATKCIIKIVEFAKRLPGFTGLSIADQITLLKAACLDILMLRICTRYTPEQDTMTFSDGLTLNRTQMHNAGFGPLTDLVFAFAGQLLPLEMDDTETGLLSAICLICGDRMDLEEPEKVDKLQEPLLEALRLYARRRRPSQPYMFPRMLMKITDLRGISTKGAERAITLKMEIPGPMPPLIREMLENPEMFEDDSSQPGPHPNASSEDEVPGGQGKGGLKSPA
Chain of RARg:RXRa (P19793 whole entry, chain 2 of 2): as the sequence (P19793 whole entry, chain 2 of 2) above
Method in brief: as §1

LXRb:RXRa = LXRb:RXRa (Homo sapiens, UniProt P55055;P19793 full;full); experiment: as above; conditions: tags: His kept;His cleaved; copies: 1;1; label: surface-attached array probe
Chain of LXRb:RXRa (P55055 whole entry, chain 1 of 2): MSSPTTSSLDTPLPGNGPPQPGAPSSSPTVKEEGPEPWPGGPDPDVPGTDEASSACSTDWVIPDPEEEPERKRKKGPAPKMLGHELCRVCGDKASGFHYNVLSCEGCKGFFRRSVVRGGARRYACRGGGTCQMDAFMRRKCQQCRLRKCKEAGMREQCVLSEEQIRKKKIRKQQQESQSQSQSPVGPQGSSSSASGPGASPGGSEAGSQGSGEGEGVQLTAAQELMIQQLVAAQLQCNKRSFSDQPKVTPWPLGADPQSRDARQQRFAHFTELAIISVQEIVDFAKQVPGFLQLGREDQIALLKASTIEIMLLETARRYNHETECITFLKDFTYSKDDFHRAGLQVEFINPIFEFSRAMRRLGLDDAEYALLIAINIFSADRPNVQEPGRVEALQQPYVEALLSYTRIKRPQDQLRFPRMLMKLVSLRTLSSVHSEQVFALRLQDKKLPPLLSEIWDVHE
Chain of LXRb:RXRa (P19793 whole entry, chain 2 of 2): as the sequence (P19793 whole entry, chain 2 of 2) above
Method in brief: as §1

FXR:RXRa = FXR:RXRa (Homo sapiens, UniProt Q96RI1;P19793 full;full); experiment: as above; conditions: tags: His kept;His cleaved; copies: 1;1; label: surface-attached array probe
Chain of FXR:RXRa (Q96RI1 whole entry, chain 1 of 2): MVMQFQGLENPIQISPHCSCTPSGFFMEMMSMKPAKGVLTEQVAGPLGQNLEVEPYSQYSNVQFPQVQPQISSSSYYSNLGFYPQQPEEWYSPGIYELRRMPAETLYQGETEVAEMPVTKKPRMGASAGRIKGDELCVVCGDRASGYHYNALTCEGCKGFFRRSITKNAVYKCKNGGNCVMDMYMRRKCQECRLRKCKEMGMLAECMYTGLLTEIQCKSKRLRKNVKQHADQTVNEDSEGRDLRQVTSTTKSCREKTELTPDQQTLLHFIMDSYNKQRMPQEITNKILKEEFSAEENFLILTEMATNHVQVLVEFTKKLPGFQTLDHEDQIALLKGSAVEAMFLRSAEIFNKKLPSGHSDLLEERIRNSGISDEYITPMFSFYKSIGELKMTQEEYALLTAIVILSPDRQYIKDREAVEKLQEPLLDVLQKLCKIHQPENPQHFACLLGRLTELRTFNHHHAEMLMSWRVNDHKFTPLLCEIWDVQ
Chain of FXR:RXRa (P19793 whole entry, chain 2 of 2): as the sequence (P19793 whole entry, chain 2 of 2) above
Method in brief: as §1

| Binder | binding signal (VDR:RXRa) | binding signal (LXRb:RXRa) | binding signal (FXR:RXRa) | further results |
| --- | --- | --- | --- | --- |
| B1 | -0.69 PBM z-score against 500 random probes |  |  | binding signal (RARb:RXRa): -0.39 PBM z-score against 500 random probes |
| B2 | -0.57 PBM z-score against 500 random probes |  |  | binding signal (RXRa): -0.37 PBM z-score against 500 random probes; binding signal (RARg:RXRa): -0.47 PBM z-score against 500 random probes; binding signal (RARb:RXRa): -0.66 PBM z-score against 500 random probes |
| B3 |  | 7.36 PBM z-score against 500 random probes |  |  |
| B4 |  | 6.72 PBM z-score against 500 random probes |  |  |
| B5 |  | 6.78 PBM z-score against 500 random probes |  |  |
| B6 | 0.33 PBM z-score against 500 random probes |  |  | binding signal (RXRa): 0.4 PBM z-score against 500 random probes |
| B7 | 3.94 PBM z-score against 500 random probes |  |  | binding signal (RARb:RXRa): 3.04 PBM z-score against 500 random probes |
| B8 | -0.59 PBM z-score against 500 random probes |  | -0.23 PBM z-score against 500 random probes |  |
| B9 | -0.96 PBM z-score against 500 random probes |  | -2.74 PBM z-score against 500 random probes | binding signal (RXRa): -0.92 PBM z-score against 500 random probes; binding signal (RARb:RXRa): -0.98 PBM z-score against 500 random probes |
| B10 |  | 7.24 PBM z-score against 500 random probes |  |  |
| B11 |  | 6.37 PBM z-score against 500 random probes |  |  |
| B12 |  | 7.56 PBM z-score against 500 random probes |  |  |
| B13 | 0.11 PBM z-score against 500 random probes |  | 0.46 PBM z-score against 500 random probes |  |
| B14 | -0.81 PBM z-score against 500 random probes |  |  | binding signal (RARg:RXRa): -0.41 PBM z-score against 500 random probes |
| B15 | -0.22 PBM z-score against 500 random probes |  | -0.37 PBM z-score against 500 random probes | binding signal (RXRa): -0.14 PBM z-score against 500 random probes |
| B16 | -0.35 PBM z-score against 500 random probes |  |  | binding signal (RXRa): -0.18 PBM z-score against 500 random probes |
| B17 | -0.37 PBM z-score against 500 random probes |  | -0.32 PBM z-score against 500 random probes | binding signal (RARb:RXRa): -0.46 PBM z-score against 500 random probes |
| B18 |  | 6.29 PBM z-score against 500 random probes |  |  |
| B19 | 8.17 PBM z-score against 500 random probes |  | 7.94 PBM z-score against 500 random probes |  |
| B20 | -0.43 PBM z-score against 500 random probes |  | -0.07 PBM z-score against 500 random probes | binding signal (RARg:RXRa): -0.62 PBM z-score against 500 random probes; binding signal (RARb:RXRa): -0.87 PBM z-score against 500 random probes |
| B21 | -0.18 PBM z-score against 500 random probes |  |  | binding signal (RXRa): -0.06 PBM z-score against 500 random probes; binding signal (RARg:RXRa): -0.18 PBM z-score against 500 random probes |
| B22 |  | 6.39 PBM z-score against 500 random probes |  |  |
